Patent publication US11497796B2, “Agents directed against a cis RGMa/neogenin interaction or lipid rafts and use of the same in methods of treatment” (UNIVERSITY HEALTH NETWORK, priority 2013, dated 2022)
Blank lines part the entries; values can stand above or below the molecule they belong to. No end group written: not given here.

Legend:
4Ig-domain of Neogenin = target: T1, 4Ig-domain of Neogenin (Gallus gallus, UniProt Q90610); assay: ELISA / AP binding assay of RGMa peptides to Neogenin domains; settings: AP-tagged fragments 1.0 μg/mL on coated His-tagged 4Ig
T1 construct: made in house
T1 sequence (Q90610 1-383): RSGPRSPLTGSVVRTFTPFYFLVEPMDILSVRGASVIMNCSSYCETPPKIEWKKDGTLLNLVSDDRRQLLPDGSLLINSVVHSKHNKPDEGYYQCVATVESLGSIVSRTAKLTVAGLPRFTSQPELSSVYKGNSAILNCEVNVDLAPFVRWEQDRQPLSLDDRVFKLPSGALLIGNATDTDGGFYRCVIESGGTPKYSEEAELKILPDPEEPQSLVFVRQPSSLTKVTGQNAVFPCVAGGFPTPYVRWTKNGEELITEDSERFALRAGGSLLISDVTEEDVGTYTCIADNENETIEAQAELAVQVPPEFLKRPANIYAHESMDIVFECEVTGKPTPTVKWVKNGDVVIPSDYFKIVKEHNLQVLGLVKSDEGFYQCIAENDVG
Source text: Specifically, the 4Ig-domain and 6FNIII-domain of Neogenin were each fused to alkaline phosphatase (AP). The 4Ig-domain and 6FNIII-domain of Neogenin were found in the extracellular portion of Neogenin. Accession No. AAC59662 (SEQ ID NO:1) was the amino acid sequence of Neogenin. The 4Ig-domain was amino acids 1 to 383 of Accession No. AAC59662 (SEQ ID NO:1). The 6FNIII-domain was amino acids 429 to 1036 of Accession No. AAC59662 (SEQ ID NO:1).
The binding of these fusions to various RGMa peptides were analyzed in an ELISA assay (FIG. 2A).
To determine if distinct N-terminal regions of RGMa bound the 4Ig- and 6FNIII-domains of Neogenin, peptides were generated that spanned the N-terminal region of RGMa. The amino acid sequence of RGMa was Accession No. NP_989868.1 (SEQ ID NO:6). These peptides were a peptide spanning amino acids 28-73 of RGMa (also referred to herein as “N-Raft”) and a peptide spanning amino acids 77-113 of RGMa (also referred to herein as “N-inh”). […] In a complementary experiment, in which the N-Raft and N-inh peptides of RGMa were fused with AP instead of the 4Ig- and 6FNIII-domains of Neogenin, N-Raft bound to the 4Ig-domain and not the 6FNIII-domain while N-inh bound to the 6FNIII-domain and not the 4Ig-domain (FIG. 9). Additionally, N-inh and N-Raft coated beads pulled down 6FNIII-domain and 4Ig-domain, respectively, which was consistent with the ELISA results described above (FIG. 2B).
The assay was conducted in a 96-well microtiter plate (Corning Incorporated). The wells were coated with 100 μl (10 μg/mL) of Poly-L-Lysine at 4° C. overnight. Wells were then washed three times with 100 μl of PB ST (+0.02% Tween).
50 μl (2.5 μg/mL) of His-tagged: Full-length Neogenin; the 4Ig-domain of Neogenin; and 6FNIII-domain of Neogenin were coated onto each well for 1 hour at 37° C. Following three washes of 100 μl PBST, each well was then blocked with 300 μl of 3% BSA in PBST for 1 hour at 37° C.
50 μl (1.0 μg/mL) AP-tagged: N-RGMa (28-73); N-RGMa (28-54); N-RGMa (40-62); N-RGMa (54-73); N-RGMa (54-62) in 1% BSA+PBST was then added to each well and incubated at 37° C. for 1 hour. Each well was washed thoroughly three times with 100 μl PBST followed by subsequent equilibration of each well with Alkaline Phosphatase (AP) developing buffer (100 mM NaHCO3, 1 mM MgCl2). The reaction was developed using AP developing buffer supplemented with, p-nitrophenyl phosphate (pNPP) (Sigma-Aldrich) and allowed to develop until color development. The reaction was stopped with the addition of 50 μl (0.1M) NaOH. The absorbance of each reaction was measured using a microplate autoreader (BIO-TEK Instruments Inc.) at 405 nanometers (nm) wavelength.

[1] = system: retinal ganglion cells (RGCs); assay: Retinal organotypic cultures (whole mounts), propidium iodide cell death; format: cell-based; settings: perturbing lipid rafts
Experimental: (A) HEK293 cells that stably express RGMa (FIG. 11) were transfected with empty plasmid (Ctrl) or Neogenin (Neo). Neogenin induced cell death (arrows) when compared to control. (B) Quantification of cell death in Neogenin-transfected cells that were incubated in BSA (Neo+Ctrl), 4Ig (1 μg/ml), N-Raft (1 μg/ml), Noggin (100 nM), or MβCD (10 mM). […] Data were average±SEM (n=3 independent experiments), *p<0.0001. (C) Representative images and (D) Quantification of cell death in chick E5 tecta electroporated with GFP- and a Neogenin-expression plasmid and then injected with N-RGMa50-99 (Ctrl; 1 μg/ml), 4Ig (1 μg/ml), or N-Raft (1 μg/ml) and subjected to TUNEL assay. […] Data were an average±SEM from 3 different tecta/conditions (*p<0.001). Bar, 100 μm. (E) Representative images and (F) Quantification of retinal whole mounts incubated for 4 days with control peptide (1 μg/ml), 4Ig (1 μg/ml), N-Raft (1 μg/ml), or MβCD (10 mM) and dead cells were stained with Propidium Iodide (PI). Images from 9 whole mounts per condition from 3 independent experiments were taken at the same intensities and the fluorescence measured using ImageJ. […] Bar, 500 μm. (G) Fluorescence micrographs of flat-mounted retinas depicting Fluorogold-labeled retinal ganglion cells (RGCs) in injured retinas at 14 days following axotomy. Control retinas (Ctrl) had few surviving RGCs. 4Ig, N-raft or MβCD increased cell survival. Bar, 200 μm. (H) Representations of the retinal areas selected in our analyses. […] Data were average±SEM (n=6 eyes), *p<0.01.
For this study, retinal organotypic cultures were used, in which axotomy of retinal ganglion cells (RGCs) deprived the cells of tropic factors and induced apoptosis. Cell death was detected using propidium iodide (PI) and all images were taken at the same intensity with the RGC-layer in focus. Cell death was gauged by measuring the relative PI intensity of whole mounts.

[2] = system: temporal retinal explants (axonal outgrowth); assay: Retinal explants outgrowth assay; format: cell-based, chick
Experimental: Poly-L-Lysine (SIGMA; 10 μg/ml) coated glass coverslips were treated with Laminin (Invitrogen; 10 μg/ml) and RGMa proteins (5 μg/ml) and incubated for 3 hours at room temperature. Temporal retinal explants were cultured on protein-coated surfaces for 18 hours. To disrupt the lipid rafts, explants were pretreated with 10 mM methyl-β-cyclodextrin (MβCD) for 12 minutes or 2 U/ml cholesterol oxidase (CO) for 1 hour at 37° C. Explants were then fixed with 4% paraformaldehyde (PFA) and stained with Alexa488-phalloidin. Fiber length was quantified using Image Pro 5.0. For immunolocalization, explants were treated with Cholera Toxin B-FITC (C1655; Sigma; 10 mg/mL) and patched, fixed and stained with Neogenin antibody. Retinal ganglion cells (RGCs) were electroporated with RGMa-His and cultured for 18 hours. The cells were fixed and stained with Neogenin and His-tag antibodies.
Retinal explants outgrowth assay. Poly-L-Lysine (PLL; SIGMA; 10 μg/ml) coated glass coverslips were treated with Laminin (10 μg/ml; Invitrogen) and RGMa proteins (5 μg) and incubated for 3 hrs at room temperature. PLL treated coverslips were coated with myelin overnight (6 μg/cm2), followed by coating with Laminin. Temporal retinal explants were cultured on either myelin or protein-coated surfaces in DMEM F-12 media (2% chick serum, 10% FBS) for 18 h. To disrupt rafts, explants were pre-treated with 10 mM MβCD for 12 min or 2 U/ml CO for 1 h at 37° C., washed, and cultured on protein coated coverslips. Explants were then fixed with 4% PFA and stained with Alexa488-fluor-phalloidin (1:50; Molecular Probes). Fiber length was quantified using Image Pro 5.0.
Statistical analysis of retinal outgrowth assays was performed using Student's two-tail t-test using Excel (Microsoft). Results were expressed as the mean±SEM (n=at least 3 independent experiments; 2 duplicates per independent experiment, >10 explants per duplicate).

[3] = system: Neogenin association with lipid rafts; assay: Lipid raft fractionation of injected chick brain/tecta; format: in vivo; settings: injected into chick brain/optic tectum one day before fractionation
Experimental: Injected chick E8 tecta (4Ig, 2 mg/mL; N-raft, 1 mg/mL; methyl-β-cyclodextrin (10 mM)) or transfected cells (Neogenin and RGMa) were collected 24 hours later, lysed and placed at the bottom of a sucrose density gradient (0.9-0.8-0.75-0.7-0.6-0.5-0.4-0.2 M) and centrifuged at 38,000 rpm for 16 hours in SW 60 rotor (Beckman Instruments Inc.).
Proteins (4Ig, 2 mg/ml; N-Raft, 1 mg/mL; RGMaΔ, 5 mg/ml; methyl-β-cyclodextrin (10 mM)) were injected in chick E8 optic tectum and tecta were collected 24 hrs later. HEK cells were transfected with Neogenin and different RGMa constructs and collected 48 hrs later. For treatment with RGMaΔ, Neogenin transfected cells were treated with RGMaΔ (2 mg/ml) and BMP-2 (100 nM) and further incubated for 1 hr at 37° C. Tecta (3 tecta for each set of experiment) and/or cells were solubilized in chilled buffer (25 mM Tris-HCl, pH 7.4, 150 mM NaCl, 5 mM EDTA and protease inhibitor cocktail) and passed through G25 and G30 needles, respectively, and centrifuged at 800 g for 10 min at 4° C. Cold Triton X-100 was added to the post nuclear supernatant to a final concentration of 1% and incubated on ice for 1 hour. 2× volume of 2M sucrose was added and sample placed at the bottom of a sucrose density gradient (0.9-0.8-0.75-0.7-0.6-0.5-0.4-0.2 M) and centrifuged at 38,000 rpm for 16 hours in SW 60 rotor (Beckman Instruments Inc.). 400 μl fractions were collected from top (top numbered 1 and next eight fractions numbered consequently) and stored at −80° C.
As such, it was examined if overexpressing recombinant 4Ig and N-Raft competed with the endogenous 4Ig and N-Raft domains to displace Neogenin from the lipid raft fractions to the non-lipid raft fractions. Specifically, N-Raft, 4Ig-domain, or a control peptide, which was amino acid residues 50-99 of RGMa (also referred to herein as “N-RGMa^50-99”), was injected into the optic tectum at E8. The tecta were collected a day later for fractionation-analyses.

binding to the 4Ig-domain of Neogenin (4Ig-domain of Neogenin): bound specifically
Molecule: N-RGMa (40-62aa): amino acids 40-62 of RGMa (SEQ ID NO:4), AP-tagged (WAATSGSHHLGAEETPEFCTALR; also: AP-tagged)

binding to the 4Ig-domain of Neogenin (4Ig-domain of Neogenin): bound specifically
Molecule: N-RGMa (54-73aa): amino acids 54 to 73 of RGMa (SEQ ID NO:3), AP-tagged (TPEFCTALRAYAHCTRRTAR; cysteine pairing not given here; also: AP-tagged)

binding to the 4Ig-domain of Neogenin (4Ig-domain of Neogenin): demonstrated binding
B2: N-RGMa (SEQ ID NO:10): N-RGMa from mouse (protein)
chain: MQPPRERLVVTGRAGWMGMGRGAGRSALGLWPTLAFLLCSFPAAISPCKILKCNSEFWSATSSGSHAPASDDVPEFCAALRTYALCTRRTARTCRGDLAYHSAVHGIEDLMSQHNCSKDGPTSQPRVRTLPPAGDSQERSDSPEICHYEKSFHKHSAAPNYT
modifications: Mouse N-RGMa
notes: N-RGMa from mouse

binding to the 4Ig-domain of Neogenin (4Ig-domain of Neogenin): demonstrated binding
B3: N-RGMc (SEQ ID NO:9): N-RGMc from mouse (protein)
chain: MGQSPSPRSPHGSPPTLSTLTLLLLLCGQAHSQCKILRCNAEYVSSTLSLRGGGSPDTPRGGGRGGLASGGLCRALRSYALCTRRTARTCRGDLAFHSAVHGIEDLMIQHNCSRQGPTAPPPARGPALPGAGPAPLTPDPCDYEARFSRLHGRAPGFLHCASFGD
modifications: Mouse N-RGMc
notes: N-RGMc from mouse

More lines, now with the values behind:

Molecule: cholesterol oxidase [CO]
enhancement of cell survival vs. control [1]: about 50%
axonal outgrowth on RGMa proteins after lipid raft disruption ([2]; 10 mM MβCD or 2 U/ml of CO): restored to control values

B1: Noggin: BMP-chelator, Accession No. AAA83259 (SEQ ID NO:5) (protein, listed as Homo sapiens)
chain: MERCPSLGVTLYALVVVLGLRATPAGGQHYLHIRPAPSDNLPLVDLIEHPDPIFDPKEKDLNETLLRSLLGGHYDPGFMATSPPEDRPGGGGGAAGGAEDLAELDQLLRQRPSGAMPSEIKGLEFSEGLAQGKKQRLSKKLRRKLQMWLWSQTFCPVLYAWNDLGSRFWPRYVKVGSCFSKRSCSVPEGMVCKPSKSVHLTVLRWRCQRRGGQRCGWIPIQYPIISECKCSC
modifications: Noggin - Accession No. AAA83259
Neogenin localization in membrane fractions [3]: not present in the lipid rafts
outgrowth in retinal explants (E8) exposed to N-RGMa, C-RGMa or RGMaΔ ([2]; in presence of Noggin): restored outgrowth
axonal outgrowth, agent alone ([2]; no RGMa protein): unaffected

B4: C-RGMa: C-terminal RGMa isoform of the CNS (protein)
chain: PHLRTFTDTFQTCKVQGAWPLIDNNYLNVQVTNTPVLPGSSATATSKLTIIFKSFQECVEQKVYQAEMDELPAAFADGSKNGGDKHGANSLKITEKVSGQHIEIQAKYIGTTIVVRQVGRYLTFAVRMPEEVVNAVEDRDSQGLYLCLRGCPLNQQIDFQTFRLAQAAEGRARRKGPSLPAPPEAFTYESATAKCREKLPVEDLYFQSCVFDLLTTGDVNFMLAAYYAFEDVKMLHSNKDKLHLYERTRALAPGN
effect on axonal outgrowth when provided as growth substrate (in trans) ([2]; protein as substrate): blocked axon growth
